Source: PMC2766537

Target: glycosylphosphatidylinositol-anchored avidin test probe (avidin/CD14 fusion) (chicken | human) (UniProt P02701)

- stoichiometry N: 4
Substance: glycosylphosphatidylinositol-anchored avidin test probe (avidin/CD14 fusion) (from UniProt P02701 25-152; P08571 318-375)
